We go through two proteins from FireProtDB (doi:10.1021/bi010636i).

The conditions of the data set: pH 7, CD, transition: 2, reversible: yes, whole UniProt chain shown; for denaturant midpoint (higher = more stable): 25 °C, GdnHCl; for Tm: Thermal.
The mark [1] stands for this setting: Rattus norvegicus, potassium phosphate buffer.

Several values for one entry are separate records, joined by “and”; a condition that tells them apart may be missing. Identical values can stand only once.

B1: Cytochrome b5 wild type, P00171 (protein)
chain: MAEESSKAVKYYTLEEIQKHNNSKSTWLILHYKVYDLTKFLEEHPGGEEVLREQAGGDATENFEDVGHSTDARELSKTFIIGELHPDDRSKITKPSESIITTIDSNPSWWTNWLIPAISALFVALIYHLYTSEN
On to B1, for which, where the note is “Bos taurus, MOPS buffer”, the “denaturant midpoint (higher = more stable)” value was 2.99 M and 3.05 M; the Tm turned out to be 73.1 °C.

B2: Cytochrome b5 type B wild type, P04166 (protein)
chain: MATPEASGSGRNGQGSDPAVTYYRLEEVAKRNTAEETWMVIHGRVYDITRFLSEHPGGEEVLLEQAGADATESFEDVGHSPDAREMLKQYYIGDVHPNDLKPKDGDKDPSKNNSCQSSWAYWIVPIVGAILIGFLYRHFWADSKSS
For B2, under setting [1], the “denaturant midpoint (higher = more stable)” value was 4.09 M and 4.03 M; the Tm was 87 °C.

One may read the Tm as the temperature at which the thermal transition is half complete.
